Reference: patent US20250325675A1, “APTAMER, CONJUGATE, COMPOSITION, METHOD FOR PREPARING SAME, AND USE THEREOF” (priority 2022, published 2025)
Non-standard residues stand in square brackets, D forms with d. Residues, ends and D or L forms follow the SMILES beside them. *: point of attachment. Dolaproine = CO[C@@H]([C@@H]1CCCN1)[C@@H](C)C(=O)O; Dil = CC[C@H](C)[C@H](NC)[C@@H](CC(=O)O)OC; {MMAE} = monomethyl auristatin E payload; X1 = C[C@@H](N*)[C@@H](O)c1ccccc1; {Cy5} = cyanine 5 fluorescent dye; NMeV = CN[C@H](C(=O)O)C(C)C

What was measured:
[1] = test system: U118MG subcutaneous tumor; experiment: Long-interval administration in U118MG subcutaneous tumor model mice (Experimental Example 23); assay type: in vivo; conditions: 0.1 or 0.3 mg/kg subcutaneous on D8, D11, D15, D29, D32, D36
Procedure: According to the method of Experimental Example 4, 42 mice inoculated with U118MG subcutaneous tumor were obtained, and were further fed after injection.
MMAE was dissolved into solutions with concentrations of 0.03 mg/mL and 0.01 mg/mL with 10% DMSO+90% serum-free DMEM medium (volume ratio). Conjugate 39 was dissolved into solutions with concentrations of 0.5 mg/mL and 0.165 mg/mL (based on aptamer). Comparative conjugate 44 was dissolved into solutions with concentrations of 0.5 mg/mL and 0.165 mg/mL (based on aptamer).
7 days after inoculation of U118MG cells, all mice were randomly divided into seven groups (6 mice per group), and each group of mice was administered. […] The mice were weighed before administration and the administration volume was calculated according to weight. […]
The tumor volumes were measured on D1, D9, D16, D19, D21, D24, D26, D29, D32, D36, D39, D43, D47, D53, D57, D60, D64, D67, D71, D74, D78, D81, D84, D88, D92, D95, and D99, wherein the blank control group was measured on D53, and test groups 7a, 7b and control group 7c were measured on D60, and then the experiment was terminated.
The long diameters and short diameters of the tumors were measured in vitro. The tumor volume was calculated according to the equation ½ (long diameter×short diameter^2). After the experiment was terminated, the tumor tissues were taken and weighed, and the average value was calculated.

[2] = test system: U118MG glioma subcutaneous tumor; experiment: In vivo anti-tumor activity in U118MG subcutaneous tumor mice (Experimental Example 11); design: species or system NOD-SCID mice
Procedure: The mice in this experiment were purchased from SPF Co., LTD: the germline was NOD-SCID, the grade was SPF, male, 6-8 weeks old; U118MG neuroglioma cells were purchased from Jennio.
The conjugate AP2 above was formulated into a 1.94 mg/mL solution with PBS. Conjugate 20 was respectively formulated into 0.625 mg/mL, 1.25 mg/mL and 2.06 mg/mL solutions with PBS (all calculated based on the amount of aptamer). MMAE (purchased from Shanghai Macklin Inc., Lot No. C12886583) was dissolved into a 0.038 mg/mL solution with a mixed solution of 10% DMSO+90% PBS (volume ratio).
The day of inoculation is designated as D1, and administration is performed once on D8, D12, D16 and D20.
36 mice were randomly divided into the following 6 groups (6 mice per group):
For blank control group 1, PBS was administered by tail vein injection with a single administration volume of 10 μL/g. […]
The long diameters and short diameters of the tumors were measured in vitro. The tumor volume was calculated according to the equation ½ (long diameter×short diameter^2). Prior to the first administration on D8, the tumor volumes in each group were measured and the average tumor volumes were recorded; the tumor volumes in each group were measured and recorded from D16 (twice a week).

[3] = test system: U118MG glioma subcutaneous tumor; experiment: In vivo distribution in U118MG cell subcutaneous tumor model mice (Experimental Example 4); design: species or system NOD-SCID mice
Procedure: U118MG human glioma cells in the logarithmic growth phase were selected and digested (0.25% pancreatic enzyme).
The mice were further fed for 20 days after injection.
The mice inoculated with U118MG above were randomly divided into 3 groups (4 mice per group). For the 4 mice per group, the administration volume was calculated according to 10 μL/g body weight, and AP1, AP2 and comparative AP11 were respectively administered to different groups of mice by tail vein injection and designated as test group 4A1, test group 4A2 and control group 4A3. Thus, the administration dosage of each mouse was 3 mg/kg (based on aptamer). Another mouse inoculated with U118MG above was administered with 1×DMEM medium by tail vein injection (the administration volume was 10 μL/g body weight), and designated as blank control group 4Y.

[4] = test system: U118MG subcutaneous tumor; experiment: In vivo distribution of conjugates with different modifications in U118MG subcutaneous tumor model mice (Experimental Example 6); design: species or system NOD-SCID mice; conditions: 3 mg/kg tail vein
Procedure: U118MG subcutaneous tumor model mice were prepared according to the method described in experimental Example 4.
9 mice were divided into 3 groups (3 mice per group). AP2, AP3 and comparative AP12 solutions were respectively administered to each mouse of each group by tail vein injection. […] The three groups of mice were respectively designated as test group 6A, test group 6B and test group 6C. […] On Day 10 after administration, one mouse of blank control group 6Y and one mouse of test group 6A was respectively euthanized and tumor tissues were taken for fluorescence imaging, and the results are shown in FIG. 5H. In FIGS. 5A-5H, Blank represents blank control group 6Y.

[5] = test system: U118MG in situ brain glioma; conditions: mouse, in vivo, 3 mg/kg
Procedure: (§1) U118MG human glioma cells in the logarithmic growth phase cultured as described in experimental Example 4 were selected and digested with 0.25% pancreatic enzyme. The cells were collected, the supernatant was aspirated, and then the cells were resuspended in DMEM medium supplemented with 10% FBS to be formulated into a cell culture solution with a cell density of 4×10^7 cells/mL.
(§2) Experimental animals were 16 NOD-SCID mice (male, 12 weeks old, purchased from SPF (Beijing) Biotechnology Co., LTD.). […]
(§3) AP1, AP2 and comparative AP11 were respectively dissolved into conjugate solutions with a concentration of 0.3 mg/mL (based on aptamer) with 1×DMEM medium. […] The administration dosage for all animals was calculated according to body weight, the administration volume was all 10 μL/g, and the administration dosage was 3 mg/kg per animal (based on the amount of aptamer). […]
(§4) At 24 h after administration, one mouse in each group was respectively euthanized and brain tissue was taken, and the remaining mice were euthanized at 48 h after administration and brain tissues were taken. The brain tissues of mice were taken for fluorescence imaging in IVIS Lumina Series III.

[6] = test system: U118MG in situ brain glioma; experiment: In vivo distribution in U118MG cell tumor in situ model mice (Experimental Example 5); conditions: control groups 5C (intrathecal 100 μg) and 5F (tail vein 3 mg/kg); 24 h and 48 h
Procedure: as §1, §2, §3, §4

A549 subcutaneous tumors = experiment: In vivo activity in A549 subcutaneous tumor model mice (Experimental Example 25); conditions: 5 mg/kg (MMAE equivalent 0.3 mg/kg) D8, D12, D15, D19; 0.6 mg/kg MMAE equivalent D46, D50, D54; at each period of time
Procedure: According to the method of Experimental Example 4, 30 mice inoculated with A549 subcutaneous tumors were obtained, and were further fed after injection.
Conjugate 20 and conjugate 39 were dissolved into conjugate solutions with a concentration of 1 mg/mL (based on aptamer) with serum-free DMEM medium. Comparative conjugate 43 was dissolved into a conjugate solution with a concentration of 0.8 mg/mL (based on aptamer). MMAE was dissolved into a solution with a concentration of 0.06 mg/mL with 10% DMSO+90% serum-free DMEM medium (volume ratio).
7 days after the inoculation of A549 human lung cancer cells, all mice were divided into groups (6 mice each group), and each mouse was administered. The day of administration was designated as D8. The mice were weighed before administration, and the administration volume was calculated according to mouse body weight.
Each group of mice was administered once on D8, D12, D15, and D19, four times in total. […]
Tumor volumes were measured on D1, D9, D16, D19, D22, D26, D30, D36, D40, D43, D47, D50, D54, and D57, wherein the blank control group was measured on D54, and then the experiment was terminated.
The long diameters and short diameters of the tumors were measured in vitro. The tumor volume was calculated according to the equation ½ (long diameter×short diameter^2).

## CC[C@H](C)[C@@H]([C@@H](CC(=O)N1CCC[C@H]1[C@H](OC)[C@@H](C)C(=O)N[C@H](C)[C@@H](O)c1ccccc1)OC)N(C)C(=O)[C@@H](NC(=O)[C@@H](NC)C(C)C)C(C)C [MMAE, Monomethylauristatin E, reference compound] (H-[NMeV]V[Dil][Dolaproine]-X1)
[1]
  growth rate of tumor volume: growth rate of tumor volume was reduced
[2]; control group 3: 0.3 mg/kg tail vein on D8, D12, D16, D20
  growth rate of tumor volume: growth rate of the tumor volume was reduced

## CY5-CmUmGmGmAmGmUmUmCmAmGmAmCmGmUmGmUmUmGmCmUmCmUmUmCmCmGmAmUmCmUmCm [AP2]
[3]; mouse, in vivo
  fluorescence signal in mice / at site of tumor inoculation: strong fluorescence signal at the sites of tumor inoculation
[4]; 4 h to 24 h after administration
  fluorescence intensity in vivo / tumor: still show high fluorescence intensity
[4]; 48 h to Day 10 after administration
  fluorescent signal in vivo / tumor: still show strong fluorescent signal
[5]
  fluorescence signal at brain glioma: obvious fluorescence signals at both 24 and 48 h
[2]; control group 2: 15.5 mg/kg tail vein on D8, D12, D16, D20
  tumor volume over time: increased rapidly

## CY5-UfCfUfAUfGGCfUfGCfCfGAUfCfUfGGUfCfUfCfCfAUfGUfACfGUf (UCUAUGGCUGCCGAUCUGGUCUCCAUGUACGU; 2'-fluoro at CU, RNA at AG, 5' {Cy5}, backbone not given here) [comparative AP11, reference compound]
[3]; 3 mg/kg tail vein injection, 1 h, 4 h, 24 h, 48 h after administration
  fluorescence signal in mice / at site of tumor inoculation: substantially no or weak fluorescence signal
[6]
  fluorescence signal at the tumor site, brain tissue: no obvious fluorescence signal at the tumor site

## MMAE-CmUmGmGmAmGmUmUmCmAmGmAmCmGmUmGmUmUmGmCmUmCmUmUmCmCmGmAmUmCmUmCm (CUGGAGUUCAGACGUGUUGCUCUUCCGAUCUC; all 2'-O-methyl, 5' {MMAE}, backbone not given here) [conjugate 20]
A549 subcutaneous tumors
  tumor volume versus control groups 25b (MMAE) and 25e (comparative conjugate 43): smaller than those of control groups 25b and 25e

## MMAE-CmUmGmGmAmGmUmUmCmAmGmAmCmGmUmUmGmUmGmCmUmCmUmUm (CUGGAGUUCAGACGUUGUGCUCUU; all 2'-O-methyl, 5' {MMAE}, backbone not given here) [conjugate 39]
A549 subcutaneous tumors
  tumor volume versus control groups 25b (MMAE) and 25e (comparative conjugate 43): smaller than those of control groups 25b and 25e
